# Values of other authors, collected in article PMC6769993, “Immunomodulatory Functions of the Human Cathelicidin LL-37 (aa 13–31)-Derived Peptides are Associated with Predicted α-Helical Propensity and Hydrophobic Index” (Biomolecules, 2019).
# Source text: The minimum region of LL-37 required for its immunomodulatory functions is an internal sequence from amino acids 13–31 [13], known as peptide IG-19. […] IG-19 suppresses inflammatory cytokine production by engaging various signaling intermediates in the presence of bacterial endotoxin or cytokine IL-32 [10, 13, 14]. Both LL-37 and IG-19 also share structural similarities; these are both α-helical amphipathic peptides with net positive charges of +6 and +5, respectively. Previous s ...
substance,measurement,value
"LL-37: the only human cathelicidin cationic host defense peptide, 37 amino acids",Net positive charge,+6
